This is an account of results in paper PMC12857291.

Broadly, the Kd is the equilibrium constant for the complex coming apart.

The target of data set [1] is T1, MeCP2-MBD WT (UniProt P51608 80-164). Briefly: EMSA; 20 uM histone H3(15-36)K27me3 peptide; EMSA: 0.5 uM DNA, 0-20 uM protein, 50 mM HEPES pH 7.5, 100 mM NaCl, 1 h at 4 C; 6% native PAGE, 1X TBE, 80 V, 4 C; SYBR Gold; n=3. The settings on record: protein: recombinant; tags: C-terminal 6xHis; label: none (SYBR Gold stain); blunt.
The target of data set [2] is T1, MeCP2-MBD WT. Briefly: EMSA; no peptide; EMSA: 0.5 uM DNA, 0-20 uM protein, 50 mM HEPES pH 7.5, 100 mM NaCl, 1 h at 4 C; 6% native PAGE, 1X TBE, 80 V, 4 C; SYBR Gold; n=3. The settings on record: protein: recombinant; tags: C-terminal 6xHis; label: none (SYBR Gold stain); blunt. (In general: In EMSA bound probe runs differently from free probe, usually more slowly.)

T1 sequence (P51608 80-164): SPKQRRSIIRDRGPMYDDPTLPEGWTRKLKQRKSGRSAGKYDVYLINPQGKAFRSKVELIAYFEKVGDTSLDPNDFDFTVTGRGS

B1: BDNF promoter duplex mC/mC (dsDNA)
DNA 1: GCCCTGGAACGGAACTCTTCTGGCC
DNA 2: GGCCAGAAGAGTTCCGTTCCAGGGC
modifications: 5-methyl-dC at position 10 of the top strand and position 15 of the bottom strand (symmetric mCpG)
Consider B1, for which the Kd in data set [1] turned out to be 1300 ± 100 nM; in data set [2], 1200 ± 100 nM.
